The values below come from patent US20210380679A1 (INHIBRX BIOSCIENCES, published 2021).

In assay [1] the target is T1, human DLL3 (Delta-like ligand 3) (human, UniProt Q9NYJ7 27-618).
T1 construct: endogenous on SHP-77 cells; also called cell-surface DLL3
T1 sequence: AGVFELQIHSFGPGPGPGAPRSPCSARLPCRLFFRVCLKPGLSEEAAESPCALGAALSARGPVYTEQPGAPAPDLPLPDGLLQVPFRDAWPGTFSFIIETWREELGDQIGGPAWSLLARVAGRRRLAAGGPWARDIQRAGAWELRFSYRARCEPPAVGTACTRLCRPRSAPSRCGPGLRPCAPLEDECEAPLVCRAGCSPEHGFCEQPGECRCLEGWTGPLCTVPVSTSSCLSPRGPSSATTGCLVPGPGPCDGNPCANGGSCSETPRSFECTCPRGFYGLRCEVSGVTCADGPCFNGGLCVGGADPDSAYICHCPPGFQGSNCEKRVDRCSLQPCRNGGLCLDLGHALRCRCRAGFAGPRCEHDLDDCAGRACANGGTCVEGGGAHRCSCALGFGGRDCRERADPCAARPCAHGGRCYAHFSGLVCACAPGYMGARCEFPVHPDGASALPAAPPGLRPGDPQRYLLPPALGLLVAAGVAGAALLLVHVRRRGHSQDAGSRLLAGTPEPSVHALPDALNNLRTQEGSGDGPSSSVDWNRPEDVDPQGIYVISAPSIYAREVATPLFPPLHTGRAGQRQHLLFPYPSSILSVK
The assay is described as follows: flow cytometry, sdAb-Fc titrated on 293FS cells transfected with DLL3 (panel title DLL3-FL), APC anti-human Fc secondary. As for the experimental part:
FIGS. 2A-L set forth a series of graphs depicting the ability of sdAb and humanized variants thereof targeting DLL3 to bind cell surface DLL3.
(§1) Specificity and relative affinity were assessed for purified sdAb-Fcs on DLL3-expressing cells. […] A titration series of the fusion protein was incubated with the DLL3-expressing cell lines (approximately 2.5×10⁴ to 5×10⁴ cells/well) for 30 minutes at 4 degrees Celsius in FACS Buffer (PBS 1% BSA, 0.1% NaN₃ pH 7.4) in 96-well plates. Following three wash steps in FACS buffer, an APC-conjugated anti-human Fcγ specific secondary antibody (Jackson ImmunoResearch) was added and incubated for 30 minutes at 4 degrees Celsius. Following three additional wash steps in FACS buffer bound antibody was detected via flow cytometry (IQue Intellicyte).
On the technique in general: In flow cytometry, cells or beads pass a laser one at a time.

Assay [2] has as its target T1, human DLL3 (Delta-like ligand 3). Put plainly: flow cytometry, SHP-77 cells.
The target is the same in assay [3]. The assay is described as follows: flow cytometry, sdAb-Fc titrated on SHP-77 cells (DLL3 positive), APC anti-human Fc secondary. As for the experimental part: as §1

B1: hz8E7v8 (Fc fusion)
VHH: EVQLVESGGGEVQPGGSLRLSCGPSEIITSDKSVGWYRQAPGKQRNLVAGISNVGSTNYAQSVKGRFTISRDNAKNTLYLQMSSLRAEDTAVYYCYARDFENEYWGQGTLVTVKP
notes: tested as VHH-human Fc; Fc not specified
Turning to B1, in assay [1], the binding result is on record as “binds”.

B2: hz8E7v11 (Fc fusion)
VHH: EVQLVESGGGEVQPGGSLRLSCGPSEIITSDKSVGWFRQAPGKQRNLVAGISNVGSTNYAQSVKGRFTISRDNAKNTLYLQMSSLRAEDTAVYYCYARDFENEYWGQGTLVTVKP
notes: as for B1
As for B2, the binding result in assay [1] is recorded as “binds”.

B3: hz8E7v16 (Fc fusion)
VHH: EVQLVESGGGEVQPGGSLRLSCGPSEIITSDKSMGWVRQAPGKQRNLVAGISNVGSTNYAQSVKGRFTISRDNAKNTVYLQMSSLRAEDTAVYYCYARDFENEYWGQGTLVTVKP
notes: as for B1
Take B3: the binding result in assay [2] is listed as “binds”.

B4: hz8E7v9 (Fc fusion)
VHH: EVQLVESGGGEVQPGGSLRLSCGPSEIITSDKSVGWVRQAPGKQRNLVAGISNVGSTNYAQSVKGRFTISRDNAKNTLYLQMSSLRAEDTAVYYCYARDFENEYWGQGTLVTVKP
notes: as for B1
As for B4, in assay [1], the binding result is reported as “binds”.

B5: L8E7 (Fc fusion)
VHH: EVQLQESGGGLVQAGGSLRLSCGPSEIITSDKSVGWWRQAPGKQRNLVAGISNVGSTNYAQSVKGRFTISRDNAKNTLFLQMNSLKPEDTAVYYCYARDFENEYWGRGTQVTVKP
notes: as for B1
As for B5, in assay [3], the binding result is “binds”.

B6: hz8E7v6 (Fc fusion)
VHH: EVQLVESGGGEVQPGGSLRLSCGPSEIIFSDKSVGWWRQAPGKQRNLVAGISNVGSTNYAQSVKGRFTISRDNAKNTLYLQMSSLRAEDTAVYYCYARDFENEYWGQGTLVTVKP
notes: as for B1
B6: the binding result in assay [1] is recorded as “binds”.

B7: hz8E7v10 (Fc fusion)
VHH: EVQLVESGGGEVQPGGSLRLSCGPSEIITSDKSVGWWRQAPGKQRELVAGISNVGSTNYAQSVKGRFTISRDNAKNTLYLQMSSLRAEDTAVYYCYARDFENEYWGQGTLVTVKP
notes: as for B1
Turning to B7, the binding result in assay [1] is “binds”.

B8: hz8E7v5 (Fc fusion)
VHH: EVQLVESGGGEVQPGGSLRLSCGPSEIITSDKSVGWWRQAPGKQRNLVAGISNVGSTNYAQSVKGRFTISRDNAKNTVYLQMSSLRAEDTAVYYCYARDFENEYWGQGTLVTVKP
notes: as for B1
For the molecule B8, the binding result in assay [1] is given as “binds”.

B9: 3B12 (Fc fusion)
VHH: QVQLQESGGGLVQSGGSLRLSCAASGFSLDDYTIGWFRQAPGKEREGVSCISSSGGSTYYADSVKGRFTISRDNAENTVYLQMNSLKPEDTAVYYCATYCPVTIADELGFDYWGQGTLVTVKP
notes: as for B1
With B9, the binding result in assay [3] was “binds”.

B10: L5A8 (Fc fusion)
VHH: QVQLVQSGGGLVQAGESLRLSCAASGSIFSINAMGWYRQVLGKQRELVAVVSSDGRTTVAPSVKGRFTISRDNAKNTVSLQMNSLKPEDTGVYYCGVREWYSDSDWRDYEGQGTQVTVKP
notes: as for B1
One may read the EC50 (read off the curve) as the concentration at which the effect is half-maximal. A higher EC50 (read off the curve) goes with weaker potency. On to B10, for which the “EC50 (read off the curve)” value in assay [1] was approximately 10 nM.

B11: L10D9 (Fc fusion)
VHH: EVQLVQSGGGLVQAGGSLRLSCAASGSILSINAMGWYRQPPGKQREMVAGFTGDGNTIYADSVKGRFTISRDNAKNTVYLQMNSLKPEDTAVYYCAADVQLFSRDYEFYWGQGTQVTVKP
notes: tested as VHH-human Fc
B11: in assay [3], the binding result is “binds”.

B12: hz5A8v5 (Fc fusion)
VHH: EVQLVESGGGEVQPGGSLRLSCAASGSIFSINAMGWYRQAPGKQRELVAVVSSDGRTTVAPSVKGRFTISRDNAKNTVYLQMSSLRAEDTGVYYCGVREWYSDSDWRDYEGQGTLVTVKP
notes: as for B1
As for B12, the “EC50 (read off the curve)” value in assay [1] was approximately 3 nM.

B13: hz5A8v11 (Fc fusion)
VHH: EVQLVESGGGEVQPGGSLRLSCAASGSIFSINAMGWYRQAPGKQREWVAVVSSDGRTTVAPSVKGRFTISRDNAKNTVYLQMSSLRAEDTAVYYCGVREWYSDSDWRDYEGQGTLVTVKP
notes: as for B1
With B13, in assay [2], the binding result is reported as “binds”.

B14: hz5A8v12 (Fc fusion)
VHH: EVQLVESGGGEVQAGGSLRLSCAASGSIFSINAMGWYRQAPGKQRELVAVVSSDGRTTVAPSVKGRFTISRDNAKNTVYLQMSSLRAEDTAVYYCGVREWYSDSDWRDYEGQGTLVTVKP
notes: as for B1
For B14, in assay [2], the binding result is recorded as “binds”.

B15: hz5A8v10 (Fc fusion)
VHH: EVQLVESGGGEVQPGGSLRLSCAASGSIFSINAMGWYRQAPGKQRELVAVVSSDARTTVAPSVKGRFTISRDNAKNTVYLQMSSLRAEDTAVYYCGVREWYSDADWRDYEGQGTLVTVKP
notes: as for B1
For B15, the binding result in assay [2] is listed as “binds”.

B16: 6B4 (Fc fusion)
VHH: QVTLRESGGGLVQAGGSLRLSCGASEITLSDKTVGWYRQAPGKQRVLVAVISNVDSTNYAHSVKGRFTISRDNAKNTVYLQMNSLKPEDTAVYYCYARDFEAEYWGQGTLVTVKP
notes: as for B1
With B16, the binding result in assay [3] was “binds”.

B17: L6F1 (Fc fusion)
VHH: QVQLVQSGGGLVQAGGSLRLSCGASEIIFSDKTVGWYRQAPGKQRVLVAVISNVDSTNYAQSVKGRFTISRDNAKNTVYLQMNSLKPEDTAVYYCYARDFESEYWGRGTQVTVKP
notes: as for B1
B17: the binding result in assay [3] is “binds”.

B18: 3B4 (Fc fusion)
VHH: QVQLQQSGGGLVQAGGSLRLSCAASGSDFSINAMGWYRQGELVAGFTGDGNPIYADSVKGRFTISRGNAENTVSLQMNSLKPEDTAVYYCAADVKIGGDYEWYWGQGTQVTVKP
notes: as for B1
On to B18, for which the “EC50 (read off the curve)” value in assay [3] was approximately 0.06 nM.
